Results on six molecules are retold here after patent US20220372514A1 (SPYBIOTECH, published 2022).

For experiment [1], the target named is hexon protein on the viral capsid of Ad5 vectors with SpyTag inserted into HVR loops (loop not specified). As to the kind of experiment: covalent coupling of SpyCatcher to virions, SDS-PAGE band densitometry (ImageJ).
The target of experiment [2] is T1, Ad5-HVR5-DogTag Hexon (human adenovirus serotype 5 (Ad5), UniProt P04133 21-952).
T1 construct: also called HVR5DT; Ad5(GFP) HVR5 DogTag

A further experiment has as its target T2, Ad5-HVR2-DogTag Hexon (human adenovirus serotype 5 (Ad5), UniProt P04133 30-952).
T2 construct: also called HVR2DT; hexon-DogTag

In experiment [3] the target is T1, Ad5-HVR5-DogTag Hexon. The source holds these as a separate data set.
For another experiment, the target named is T3, Ad5-HVR1-DogTag Hexon (human adenovirus serotype 5 (Ad5), UniProt P04133 2-952).
T3 construct: also called HVR1DT; hexon-DogTag

The target in experiment [4] is T1, Ad5-HVR5-DogTag Hexon. This is another data set of the same source.

Where two headings read alike, the source gives them in different places.

SpyCatcher (designed binder) came in with a % of hexon protein coupled in experiment [1] greater than 50%.

B1: DogCatcher-NANP9 (other)
chain: MAHHHHHHVGTGKLGDIEFIKVNKNDKKPLRGAVFSLQKQHPDYPDIYGAIDQNGTYQNVRTGEDGKLTFKNLSDGKYRLFENSEPAGYKPVQNKPIVAFQIVNGEVRDVTSIVPQGSGGSGGSNANPNANPNANPNANPNANPNANPNANPNANPNANP
Regarding B1, the binding result with Ad5-HVR5-DogTag Hexon [2] was “binds”.

B2: DogCatcher (designed binder)
chain: MGSSHHHHHHSSGLVPRGSHMKLGDIEFIKVNKNDKKPLRGAVFSLQKQHPDYPDIYGAIDQNGTYQNVRTGEDGKLTFKNLSDGKYRLFENSEPAGYKPVQNKPIVAFQIVNGEVRDVTSIVPQ
notes: His-tagged DogCatcher expressed in E. coli; forms a spontaneous isopeptide bond with DogTag; also called DC; RrgACatcher
In the case of B2, the “coverage of capsid hexon (%)” value with Ad5-HVR2-DogTag Hexon, in the experiment with Ad5-HVR5-DogTag Hexon [3] and in the experiment with Ad5-HVR1-DogTag Hexon was greater than 90% throughout.

B3: DogCatcher-NANP18 (other)
chain: MAHHHHHHVGTGKLGDIEFIKVNKNDKKPLRGAVFSLQKQHPDYPDIYGAIDQNGTYQNVRTGEDGKLTFKNLSDGKYRLFENSEPAGYKPVQNKPIVAFQIVNGEVRDVTSIVPQGSGGSGGSNANPNANPNANPNANPNANPNANPNANPNANPNANPNANPNANPNANPNANPNANPNANPNANPNANPNANP
notes: also called DC-NANP18
Regarding B3, the binding result in the experiment with Ad5-HVR5-DogTag Hexon [2] is recorded as “binds”.

B4: DogCatcher-NANP Domain (other)
chain: MAHHHHHHVGTGKLGDIEFIKVNKNDKKPLRGAVFSLQKQHPDYPDIYGAIDQNGTYQNVRTGEDGKLTFKNLSDGKYRLFENSEPAGYKPVQNKPIVAFQIVNGEVRDVTSIVPQGSGGSGGSNANPNVDPNANPNVDPNANPNVDPNANPNANPNANPNANPNANPNANPNANPNANPNANPNANPNANPNANPNANPNANPNANPNANPNANPNVDPNANPNANPNANPNANPNANPNANPNANPNANPNANPNANPNANPNANPNANPNANPNANPNANPNANPNANP
In the case of B4, the binding result with Ad5-HVR5-DogTag Hexon [2] is given as “binds”.

B5: Biotin-SnoopTagJr (peptide)
peptide: GKLGSIEFIKVNK
modifications: N-terminal biotin
notes: also called SnJr-biotin; Biotinylated SnJr-peptide
Take B5: the binding result with Ad5-HVR5-DogTag Hexon [4] is given as “binds”.
